Assays:
Details in all cases: protein: recombinant; tags: N-terminal His; label: 5'-biotin
[1] = target: T1, FTZ-F1 T288D(P) (phosphomimic) (Plutella xylostella, UniProt A0ABQ7R810 1-557, T288D); experiment: EMSA; 20 fmol probe; EMSA: 25 °C, 30 min, 20 fmol biotin probe, LightShift Chemiluminescent EMSA Kit; buffer, salt and pH not stated
[2] = target: T2, FTZ-F1 T288A(-P) (non-phosphorylated form) (Plutella xylostella, UniProt A0ABQ7R810 1-557, T288A); experiment: EMSA; 20 fmol probe; cold competitor 100 and 500 fmol; EMSA: 25 °C, 30 min, 20 fmol biotin probe, LightShift Chemiluminescent EMSA Kit; buffer, salt and pH not stated
T2 sequence (A0ABQ7R810 entry or part of it T288A | T288A T288A): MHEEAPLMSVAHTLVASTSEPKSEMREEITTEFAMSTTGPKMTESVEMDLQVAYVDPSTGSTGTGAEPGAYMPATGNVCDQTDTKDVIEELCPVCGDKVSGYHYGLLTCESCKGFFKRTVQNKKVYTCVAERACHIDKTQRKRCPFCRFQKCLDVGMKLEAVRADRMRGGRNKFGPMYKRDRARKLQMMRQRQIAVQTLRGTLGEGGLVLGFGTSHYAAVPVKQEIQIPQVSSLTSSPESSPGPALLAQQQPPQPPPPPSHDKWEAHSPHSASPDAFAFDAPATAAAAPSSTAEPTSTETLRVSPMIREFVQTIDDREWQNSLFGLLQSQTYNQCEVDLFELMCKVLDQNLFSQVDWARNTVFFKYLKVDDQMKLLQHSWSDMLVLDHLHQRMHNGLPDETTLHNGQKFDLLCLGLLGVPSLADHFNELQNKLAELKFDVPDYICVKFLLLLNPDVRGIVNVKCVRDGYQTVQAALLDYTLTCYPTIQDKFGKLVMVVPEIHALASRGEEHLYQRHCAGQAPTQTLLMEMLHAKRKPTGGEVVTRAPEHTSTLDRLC

[3] = target: T2, FTZ-F1 T288A(-P) (non-phosphorylated …); experiment: EMSA; 20 fmol probe; EMSA: 25 °C, 30 min, 20 fmol biotin probe, LightShift Chemiluminescent EMSA Kit; buffer, salt and pH not stated
[4] = target: T1, FTZ-F1 T288D(P) (phosphomimic); experiment: EMSA; 20 fmol probe; cold competitor 100 and 500 fmol; EMSA: 25 °C, 30 min, 20 fmol biotin probe, LightShift Chemiluminescent EMSA Kit; buffer, salt and pH not stated

T1 sequence (A0ABQ7R810 entry or part of it T288D | T288D T288D): as the sequence (A0ABQ7R810 entry or part of it T288A | T288A T288A) above, with A288D counted along it

B1: FBS (ABCC2 promoter) (dsDNA)
DNA 1: CTGTCCTGTAA
DNA 2: TTACAGGACAG
B1: no binding [1]; binds [2].

B2: FBSP (ABCC1 promoter) (dsDNA)
DNA 1: GTACAGTCAC
DNA 2: GTGACTGTAC
B2: no binding [3]; binds [4].

Source: publication PMC9555685, “A single transcription factor facilitates an insect host combating Bacillus thuringiensis infection while maintaining fitness”
